{
  "source": "paper PMC7392197",
  "about": "(Journal of the American Chemical Society, 2020)",
  "proteins": {"B1": {"name": "His6-MBP-UvrC fusion protein (holo form, with [4Fe4S] cluster) (enzyme, E. coli, UniProt P0A8G0 1-610, looked up)", "chain": "MSDQFDAKAFLKTVTSQPGVYRMYDAGGTVIYVGKAKDLKKRLSSYFRSNLASRKTEALVAQIQQIDVTVTHTETEALLLEHNYIKLYQPRYNVLLRDDKSYPFIFLSGDTHPRLAMHRGAKHAKGEYFGPFPNGYAVRETLALLQKIFPIRQCENSVYRNRSRPCLQYQIGRCLGPCVEGLVSEEEYAQQVEYVRLFLSGKDDQVLTQLISRMETASQNLEFEEAARIRDQIQAVRRVTEKQFVSNTGDDLDVIGVAFDAGMACVHVLFIRQGKVLGSRSYFPKVPGGTELSEVVETFVGQFYLQGSQMRTLPGEILLDFNLSDKTLLADSLSELAGRKINVQTKPRGDRARYLKLARTNAATALTSKLSQQSTVHQRLTALASVLKLPEVKRMECFDISHTMGEQTVASCVVFDANGPLRAEYRRYNITGITPGDDYAAMNQVLRRRYGKAIDDSKIPDVILIDGGKGQLAQAKNVFAELDVSWDKNHPLLLGVAKGADRKAGLETLFFEPEGEGFSLPPDSPALHVIQHIRDESHDHAIGGHRKKRAKVKNTSSLETIEGVGPKRRQMLLKYMGGLQGLRNASVEEIAKVPGISQGLAEKIFWSLKH"}},
  "target": "the molecule itself",
  "experiment": "SEC",
  "data": [
    {"protein": "B1", "values": [
      {"measurement": "stoichiometry N", "value": 2}
    ]}
  ]
}
